Experiments:
[1] = molecular target: human PD-L1, his tagged (hPD-L1-his) (human) (UniProt Q9NZQ7); assay: ELISA on coated hPD-L1-his, negative control
[2] = molecular target: human PD-L1 Fc fusion (hPD-L1-Fc) (human) (UniProt Q9NZQ7); assay: blocking ELISA: residual biotin-hPD-1-Fc signal on coated hPD-L1-Fc, negative control
[3] = molecular target: cynomolgus PD-L1, his tagged (cPD-L1-his) (cynomolgus (Macaca fascicularis)) (UniProt G7PSE7); assay: ELISA on coated cPD-L1-his, negative control
Chain of cynomolgus PD-L1, his tagged (cPD-L1-his) (cynomolgus (Macaca fascicularis)) (G7PSE7 entry or part of it limits assumed, form in doubt): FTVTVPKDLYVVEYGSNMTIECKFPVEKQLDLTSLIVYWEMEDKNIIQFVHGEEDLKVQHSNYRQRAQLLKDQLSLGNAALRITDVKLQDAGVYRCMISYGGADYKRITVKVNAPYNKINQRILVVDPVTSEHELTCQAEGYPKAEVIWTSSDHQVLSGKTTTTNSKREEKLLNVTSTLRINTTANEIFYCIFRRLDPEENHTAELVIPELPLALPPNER

Chain of human PD-L1, his tagged (hPD-L1-his) (human) (Q9NZQ7 19-238 limits assumed): as the sequence (G7PSE7 entry or part of it limits assumed, form in doubt) above, with T33A, S34A, N62S, Q68R, R82Q, L173F, A185T, I192T, L215H counted along it
Chain of human PD-L1 Fc fusion (hPD-L1-Fc) (human) (Q9NZQ7 19-238 limits assumed): as the sequence (G7PSE7 entry or part of it limits assumed, form in doubt) above, with T33A, S34A, N62S, Q68R, R82Q, L173F, A185T, I192T, L215H counted along it

A450 [1]: 0.034 A450
Block Residual % [2]: 60%
A450 [3]: 0.0348 A450
Substance: NEG (negative control of the hybridoma supernatant screen)

From patent publication US20240067729A1
